Key:
[1] = biological target: T1, FcγRIIb extracellular domain with C-terminal His tag (human, UniProt P31994 43-217); test: SPR; KD for FcγRIIaR divided by KD for FcγRIIb
T1 construct: extracellular domain
T1 sequence (looked up): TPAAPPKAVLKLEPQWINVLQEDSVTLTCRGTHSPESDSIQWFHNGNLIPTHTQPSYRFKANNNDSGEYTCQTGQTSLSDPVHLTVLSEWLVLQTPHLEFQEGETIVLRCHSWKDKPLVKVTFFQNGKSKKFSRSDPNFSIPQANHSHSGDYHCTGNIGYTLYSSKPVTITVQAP

[2] = biological target: T1, FcγRIIb extracellular domain with …; test: SPR; KD for FcγRIIaH divided by KD for FcγRIIb
[3] = biological target: T2, FcγRIIa type R (allotype R131) extracellular domain with C-terminal His tag (human, UniProt P12318 34-217); test: SPR; KD of IL6R-B3/IL6R-L divided by KD of the variant
T2 construct: extracellular domain; also called FcγRIIaR; FcγRIIa R type
T2 sequence (looked up): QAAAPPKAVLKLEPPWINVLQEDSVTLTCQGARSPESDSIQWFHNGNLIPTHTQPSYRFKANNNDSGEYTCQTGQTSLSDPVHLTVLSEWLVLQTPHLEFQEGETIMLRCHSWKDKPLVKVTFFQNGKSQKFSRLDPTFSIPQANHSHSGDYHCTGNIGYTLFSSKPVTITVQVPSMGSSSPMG

[4] = biological target: T1, FcγRIIb extracellular domain with …; test: as above

Binder | KD(IIaR)/KD(IIb) [1] | KD(IIaH)/KD(IIb) [2] | KD(IIaR) OF PARENT POLYPEPTIDE/KD(IIaR) OF ALTERED POLYPEPTIDE [3] | KD(IIb) OF PARENT POLYPEPTIDE/KD(IIb) OF ALTERED POLYPEPTIDE [4]
IL6R-BP496/IL6R-L (antibody, human IgG1, kappa, name in EU numbering, copies: 2 + 2) heavy: QVQLQESGPGLVKPSETLSLTCAVSGHSISHDHAWSWVRQPPGEGLEWIGFISYSGITNYNPSLQGRVTISRDNSKNTLYLQMNSLRAEDTAVYYCARSLARTTAMDYWGEGTLVTVSSASTKGPSVFPLAPSSKSTSGGTAALGCLVKDYFPEPVTVSWNSGALTSGVHTFPAVLQSSGLYSLSSVVTVPSSSLGTQTYICNVNHKPSNTKVDKKVEPKSCDKTHTCPPCPAPDLLGDDSVFLFPPKPKDTLMISRTPEVTCVVIDVAEEDGEVKFNWYVDGVEVHNAKTKPREEQDNSTYRVVSVLTVLHQDWLNGKEYKCKVSNKALPAPIEKTISKAKGQPREPQVYTLPPSRDELTKNQVSLTCLVKGFYPSDIAVEWESNGQPENNYKTTPPVLDSDGSFFLYSKLTVDKSRWQQGNVFSCSVMHEALHNHYTQESLSLSP light: not shown | 25.5 | 201 | 2.3 | 168
IL6R-BP503/IL6R-L (antibody, human IgG1, kappa, name in EU numbering, copies: 2 + 2) heavy: QVQLQESGPGLVKPSETLSLTCAVSGHSISHDHAWSWVRQPPGEGLEWIGFISYSGITNYNPSLQGRVTISRDNSKNTLYLQMNSLRAEDTAVYYCARSLARTTAMDYWGEGTLVTVSSASTKGPSVFPLAPSSKSTSGGTAALGCLVKDYFPEPVTVSWNSGALTSGVHTFPAVLQSSGLYSLSSVVTVPSSSLGTQTYICNVNHKPSNTKVDKKVEPKSCDKTHTCPPCPAPDLLGDDSVFLFPPKPKDTLMISRTPEVTCVVIDVAEEDGEVKFNWYVDGVEVHNAKTKPREEQDNSTYRVVSVLTVLHQDWLNGKEYKCKVSNKGLPRPIEKTISKAKGQPREPQVYTLPPSRDELTKNQVSLTCLVKGFYPSDIAVEWESNGQPENNYKTTPMVLDSDGSFFLYSKLTVDKSRWQQGNVFSCSVMHEALHNHYTQESLSLSP light: not shown | 33.2 | 503 | 19.4 | 1810
IL6R-BP497/IL6R-L (antibody, human IgG1, kappa, name in EU numbering, copies: 2 + 2) heavy: QVQLQESGPGLVKPSETLSLTCAVSGHSISHDHAWSWVRQPPGEGLEWIGFISYSGITNYNPSLQGRVTISRDNSKNTLYLQMNSLRAEDTAVYYCARSLARTTAMDYWGEGTLVTVSSASTKGPSVFPLAPSSKSTSGGTAALGCLVKDYFPEPVTVSWNSGALTSGVHTFPAVLQSSGLYSLSSVVTVPSSSLGTQTYICNVNHKPSNTKVDKKVEPKSCDKTHTCPPCPAPDLLGDDSVFLFPPKPKDTLMISRTPEVTCVVIDVAEEDGEVKFNWYVDGVEVHNAKTKPREEQYNSTYRVVSVLTVLHQDWLNGKEYKCKVSNKGLPRPIEKTISKAKGQPREPQVYTLPPSRDELTKNQVSLTCLVKGFYPSDIAVEWESNGQPENNYKTTPPVLDSDGSFFLYSKLTVDKSRWQQGNVFSCSVMHEALHNHYTQESLSLSP light: not shown | 21 | 236 | 12.9 | 764
IL6R-BP508/IL6R-L (antibody, human IgG1, kappa, name in EU numbering, copies: 2 + 2) heavy: QVQLQESGPGLVKPSETLSLTCAVSGHSISHDHAWSWVRQPPGEGLEWIGFISYSGITNYNPSLQGRVTISRDNSKNTLYLQMNSLRAEDTAVYYCARSLARTTAMDYWGEGTLVTVSSASTKGPSVFPLAPSSKSTSGGTAALGCLVKDYFPEPVTVSWNSGALTSGVHTFPAVLQSSGLYSLSSVVTVPSSSLGTQTYICNVNHKPSNTKVDKKVEPKSCDKTHTCPPCPAPDLLGDDSVFLFPPKPKDTLMISRTPEVTCVVIDVAEEDGPVKFNWYVDGVEVHNAKTKPREEQDNSTYRVVSVLTVLHQDWLNGKEYKCKVSNKALPAPIEKTISKAKGQPREPQVYTLPPSRDELTKNQVSLTCLVKGFYPSDIAVEWESNGQPENNYKTTPPVLDSDGSFFLYSKLTVDKSRWQQGNVFSCSVMHEALHNHYTQESLSLSP light: not shown | 26 | 962 | 2 | 149
IL6R-BP499/IL6R-L (antibody, human IgG1, kappa, name in EU numbering, copies: 2 + 2) heavy: QVQLQESGPGLVKPSETLSLTCAVSGHSISHDHAWSWVRQPPGEGLEWIGFISYSGITNYNPSLQGRVTISRDNSKNTLYLQMNSLRAEDTAVYYCARSLARTTAMDYWGEGTLVTVSSASTKGPSVFPLAPSSKSTSGGTAALGCLVKDYFPEPVTVSWNSGALTSGVHTFPAVLQSSGLYSLSSVVTVPSSSLGTQTYICNVNHKPSNTKVDKKVEPKSCDKTHTCPPCPAPDLLGDDSVFLFPPKPKDTLMISRTPEVTCVVIDVAEEDGEVKFNWYVDGVEVHNAKTKPREEQDNSTYRVVSVLTVLHQDWLNGKEYKCKVSNKALPRPIEKTISKAKGQPREPQVYTLPPSRDELTKNQVSLTCLVKGFYPSDIAVEWESNGQPENNYKTTPLVLDSDGSFFLYSKLTVDKSRWQQGNVFSCSVMHEALHNHYTQESLSLSP light: not shown | 33.8 | 685 | 22.3 | 2120
IL6R-BP498/IL6R-L (antibody, human IgG1, kappa, name in EU numbering, copies: 2 + 2) heavy: QVQLQESGPGLVKPSETLSLTCAVSGHSISHDHAWSWVRQPPGEGLEWIGFISYSGITNYNPSLQGRVTISRDNSKNTLYLQMNSLRAEDTAVYYCARSLARTTAMDYWGEGTLVTVSSASTKGPSVFPLAPSSKSTSGGTAALGCLVKDYFPEPVTVSWNSGALTSGVHTFPAVLQSSGLYSLSSVVTVPSSSLGTQTYICNVNHKPSNTKVDKKVEPKSCDKTHTCPPCPAPDLLGDDSVFLFPPKPKDTLMISRTPEVTCVVIDVAEEDGEVKFNWYVDGVEVHNAKTKPREEQYNSTYRVVSVLTVLHQDWLNGKEYKCKVSNKALPRPIEKTISKAKGQPREPQVYTLPPSRDELTKNQVSLTCLVKGFYPSDIAVEWESNGQPENNYKTTPLVLDSDGSFFLYSKLTVDKSRWQQGNVFSCSVMHEALHNHYTQESLSLSP light: not shown | 30.3 | 564 | 21.7 | 1880
IL6R-BP502/IL6R-L (antibody, human IgG1, kappa, name in EU numbering, copies: 2 + 2) heavy: QVQLQESGPGLVKPSETLSLTCAVSGHSISHDHAWSWVRQPPGEGLEWIGFISYSGITNYNPSLQGRVTISRDNSKNTLYLQMNSLRAEDTAVYYCARSLARTTAMDYWGEGTLVTVSSASTKGPSVFPLAPSSKSTSGGTAALGCLVKDYFPEPVTVSWNSGALTSGVHTFPAVLQSSGLYSLSSVVTVPSSSLGTQTYICNVNHKPSNTKVDKKVEPKSCDKTHTCPPCPAPDLLGDDSVFLFPPKPKDTLMISRTPEVTCVVIDVAEEDGEVKFNWYVDGVEVHNAKTKPREEQDNSTYRVVSVLTVLHQDWLNGKEYKCKVSNKGLPRPIEKTISKAKGQPREPQVYTLPPSRDELTKNQVSLTCLVKGFYPSDIAVEWESNGQPENNYKTTPPVLDSDGSFFLYSKLTVDKSRWQQGNVFSCSVMHEALHNHYTQESLSLSP light: not shown | 29.5 | 352 | 10.1 | 810
IL6R-BP500/IL6R-L (antibody, human IgG1, kappa, name in EU numbering, copies: 2 + 2) heavy: QVQLQESGPGLVKPSETLSLTCAVSGHSISHDHAWSWVRQPPGEGLEWIGFISYSGITNYNPSLQGRVTISRDNSKNTLYLQMNSLRAEDTAVYYCARSLARTTAMDYWGEGTLVTVSSASTKGPSVFPLAPSSKSTSGGTAALGCLVKDYFPEPVTVSWNSGALTSGVHTFPAVLQSSGLYSLSSVVTVPSSSLGTQTYICNVNHKPSNTKVDKKVEPKSCDKTHTCPPCPAPELLGDDSVFLFPPKPKDTLMISRTPEVTCVVIDVAEEDGEVKFNWYVDGVEVHNAKTKPREEQDNSTYRVVSVLTVLHQDWLNGKEYKCKVSNKALPAPIEKTISKAKGQPREPQVYTLPPSRDELTKNQVSLTCLVKGFYPSDIAVEWESNGQPENNYKTTPPVLDSDGSFFLYSKLTVDKSRWQQGNVFSCSVMHEALHNHYTQESLSLSP light: not shown | 29.9 | 1030 | 1.5 | 128
IL6R-BP505/IL6R-L (antibody, human IgG1, kappa, name in EU numbering, copies: 2 + 2) heavy: QVQLQESGPGLVKPSETLSLTCAVSGHSISHDHAWSWVRQPPGEGLEWIGFISYSGITNYNPSLQGRVTISRDNSKNTLYLQMNSLRAEDTAVYYCARSLARTTAMDYWGEGTLVTVSSASTKGPSVFPLAPSSKSTSGGTAALGCLVKDYFPEPVTVSWNSGALTSGVHTFPAVLQSSGLYSLSSVVTVPSSSLGTQTYICNVNHKPSNTKVDKKVEPKSCDKTHTCPPCPAPDLLGDDSVFLFPPKPKDTLMISRTPEVTCVVIDVAEEDGDVKFNWYVDGVEVHNAKTKPREEQYNSTYRVVSVLTVLHQDWLNGKEYKCKVSNKALPAPIEKTISKAKGQPREPQVYTLPPSRDELTKNQVSLTCLVKGFYPSDIAVEWESNGQPENNYKTTPPVLDSDGSFFLYSKLTVDKSRWQQGNVFSCSVMHEALHNHYTQESLSLSP light: not shown | 20 | 514 | 2.6 | 145

Reference: US20240279325A1 (Chugai, published 2024)
